Source: patent US20240301086A1 (APTEVO RESEARCH AND DEVELOPMENT, published 2024)

Key:
[1] = target: T1, human CD3ε in the TCR/CD3 complex on Jurkat cells (human, UniProt P07766 23-207); assay: flow cytometry on Jurkat cells, PE goat anti-human IgG Fc secondary, MFI (median)
T1 construct: whole, on cells; On the cells it stands in the whole TCR/CD3 complex; also called CD3 (+) cells; CD3-expressing Jurkat cells
Method: (§1) Constructs were initially tested in CD3ε and PSMA binding assays on Jurkat and C4-2B cells. Cells were labelled at approximately 100,000 cells per well, in 96-well plates, with serial dilutions of bispecific constructs ranging in concentration from of 0.1 to 300 nM, for 30 min on ice. Primary label was followed by washes and incubation with PE-labeled minimum cross species reactive secondary antibody, goat anti-human IgG Fcγ, F(ab′)2 (Jackson Laboratory) for 30 minutes on ice. Washes and incubation were done in staining buffer (PBS with 0.2% BSA and 2 mM EDTA). Cells were collected using an BD™ LSRII or a BD FACSymphony™ flow cytometer (BD Biosciences) and analyzed by FlowJo flow cytometry analysis software. Median fluorescence intensity (MFI) of bound molecules on cells was determined after exclusion of doublets. Results were plotted and nonlinear regression analysis to determine EC50 values was performed using GraphPad Prism 7© graphing and statistics software.

[2] = target: T1, human CD3ε in the TCR/CD3 complex on …; assay: as above; remark: listed apart in the source
Method: as §1

[3] = target: T2, Full-length Human PSMA (TSC435), on cells (human, UniProt Q04609 1-750); assay: flow cytometry on C4-2B cells, PE goat anti-human IgG Fc secondary, MFI (median)
T2 construct: also called CHOK1SV/huPSMA; PSMA on C4-2B, 22RV1, LNCaP, MDA-PCa-2b cells
Method: as §1

[4] = target: T3, Full-length cynomolgus monkey PSMA (TSC308), on cells (cynomolgus monkey, UniProt Q04609 1-750 (human entry)); assay: flow cytometry on CHO-CynoPSMA cells, Median (PE); drawn table row 'Cyno PSMA binding affinity'
T3 construct: also called cyno PSMA; CHOK1SV/cynoPSMA
T3 chain: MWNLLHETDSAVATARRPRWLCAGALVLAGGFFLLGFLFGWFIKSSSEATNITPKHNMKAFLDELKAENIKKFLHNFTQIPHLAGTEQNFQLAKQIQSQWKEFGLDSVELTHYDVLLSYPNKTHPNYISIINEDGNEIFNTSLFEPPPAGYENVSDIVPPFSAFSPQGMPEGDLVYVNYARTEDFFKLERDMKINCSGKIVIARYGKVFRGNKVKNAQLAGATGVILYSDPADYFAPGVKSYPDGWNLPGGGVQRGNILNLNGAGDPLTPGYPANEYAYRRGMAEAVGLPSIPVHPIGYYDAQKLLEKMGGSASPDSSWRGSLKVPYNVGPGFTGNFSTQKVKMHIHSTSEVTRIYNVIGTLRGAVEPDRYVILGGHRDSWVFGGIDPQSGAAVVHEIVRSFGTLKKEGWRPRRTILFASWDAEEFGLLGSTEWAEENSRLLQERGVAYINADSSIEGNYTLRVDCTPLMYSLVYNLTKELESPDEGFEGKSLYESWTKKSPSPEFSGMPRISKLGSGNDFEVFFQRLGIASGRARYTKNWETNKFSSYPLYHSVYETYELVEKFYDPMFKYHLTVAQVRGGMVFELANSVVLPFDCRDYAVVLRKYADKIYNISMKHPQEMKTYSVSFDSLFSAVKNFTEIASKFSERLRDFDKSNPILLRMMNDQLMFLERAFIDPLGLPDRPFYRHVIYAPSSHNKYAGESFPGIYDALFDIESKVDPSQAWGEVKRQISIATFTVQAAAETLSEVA

[5] = target: T2, Full-length Human PSMA (TSC435), on …; assay: flow cytometry on C4-2B cells, PE goat anti-human IgG Fc secondary, MFI (median); remark: listed apart in the source
Method: as §1

[6] = target: T4, cynomolgus Fcγ receptor III (cynomolgus monkey, UniProt Q8SPW2 17-208); assay: SPR (Biacore T200), construct amine-coupled, soluble cyno Fcγ receptor as analyte
T4 construct: Called recombinant, soluble; also called Cyno RIII
T4 sequence (Q8SPW2 17-208): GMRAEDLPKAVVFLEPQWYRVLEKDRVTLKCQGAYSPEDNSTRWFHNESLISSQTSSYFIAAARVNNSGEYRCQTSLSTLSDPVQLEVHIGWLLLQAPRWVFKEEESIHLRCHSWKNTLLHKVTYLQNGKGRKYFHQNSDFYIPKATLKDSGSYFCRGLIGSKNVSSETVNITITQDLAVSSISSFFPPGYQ
Method: (§2) The Fc region incorporated into anti-PSMA bispecific constructs contained mutations intended to reduce or abolish binding to common human and cynomolgus Fc gamma receptors. SPR experiments were conducted at 25° C. in HBS-EP+ with 0.2% BSA buffer on a Biacore T200 system to evaluate the impact of these mutations on binding. For these experiments, three flow cells of a CM5 sensor chip were immobilized with anti-PSMA bispecifics by standard amine coupling to a response level of ˜2000 RU. A blank immobilization was performed on flow cell #1 for purposes of background signal subtraction. Both human and cynomolgus monkey Fcγ receptors (purchased from R&D Systems) were diluted in HBS-EP+ with 0.2% BSA to 4-6 μM and then flowed as analytes at 30 μL/min for 120 seconds followed by a 240 second dissociation step. No regeneration step was required. Blank-subtracted sensorgrams were visually inspected for binding to each of the Fcγ receptor proteins. […] Attenuated binding to Fcγ receptors IIA (both polymorphic variants) and IIB/C was observed. PSMA01107 and PSMA01108 share the same Fc amino acid sequence and therefore equivalent Fcγ receptor binding behavior was expected.

human Fcγ receptor IIIB = human Fcγ receptor IIIB (human, UniProt O75015 17-200); assay: SPR (Biacore T200), construct amine-coupled, Fcγ receptor as analyte
Sequence of human Fcγ receptor IIIB (O75015 17-200): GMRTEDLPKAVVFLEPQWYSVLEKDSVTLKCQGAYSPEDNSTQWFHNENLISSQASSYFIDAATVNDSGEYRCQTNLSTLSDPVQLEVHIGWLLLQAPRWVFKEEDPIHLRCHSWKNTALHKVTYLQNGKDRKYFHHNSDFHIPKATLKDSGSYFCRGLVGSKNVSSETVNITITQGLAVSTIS
Method: as §2

[7] = target: human Fcγ receptor IIIA, F176 variant (human, UniProt P08637 17-208); assay: as above
Sequence of human Fcγ receptor IIIA, F176 variant (P08637 17-208, change not shown): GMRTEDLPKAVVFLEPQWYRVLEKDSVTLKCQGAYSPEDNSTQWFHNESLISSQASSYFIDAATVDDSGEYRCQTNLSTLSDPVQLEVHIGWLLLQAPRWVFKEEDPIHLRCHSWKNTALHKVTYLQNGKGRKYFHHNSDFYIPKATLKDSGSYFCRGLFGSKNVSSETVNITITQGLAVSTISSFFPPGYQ
Method: as §2

human Fcγ receptor I = human Fcγ receptor I (human, UniProt P12314 16-288); assay: as above
Sequence of human Fcγ receptor I (P12314 16-288): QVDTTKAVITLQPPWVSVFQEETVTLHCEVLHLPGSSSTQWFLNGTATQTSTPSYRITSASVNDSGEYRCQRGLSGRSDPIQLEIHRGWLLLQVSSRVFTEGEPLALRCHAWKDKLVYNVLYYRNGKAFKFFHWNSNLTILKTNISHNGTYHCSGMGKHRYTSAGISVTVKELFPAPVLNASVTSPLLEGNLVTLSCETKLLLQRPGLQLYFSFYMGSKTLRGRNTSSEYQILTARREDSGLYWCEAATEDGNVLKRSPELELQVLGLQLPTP
Method: as §2

[8] = target: human Fcγ receptor IIIA, V176 variant (human, UniProt P08637 17-208); assay: as above
Sequence of human Fcγ receptor IIIA, V176 variant (P08637 other isoform, or with tags, fused parts or gaps mutant): as the sequence (P08637 17-208, change not shown) above, with F160V counted along it
Method: as §2

[9] = target: T2, Full-length Human PSMA (TSC435), on …; assay: flow cytometry, drawn table 'On- Cell Binding Parameters', row 'Human PSMA binding affinity'
[10] = target: T1, human CD3ε in the TCR/CD3 complex on …; assay: flow cytometry, drawn table 'On- Cell Binding Parameters', row 'Human CD3 binding affinity'
Method: as §1

T1 sequence (P07766 23-207, one chain of several): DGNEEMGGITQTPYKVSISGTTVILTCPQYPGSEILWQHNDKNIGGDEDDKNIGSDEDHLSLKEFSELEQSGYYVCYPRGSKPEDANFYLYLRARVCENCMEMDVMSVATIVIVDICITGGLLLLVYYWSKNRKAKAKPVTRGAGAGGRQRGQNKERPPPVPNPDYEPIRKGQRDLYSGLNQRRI

EC50 [1]: > 200 nM | EC50 [2]: > 210 nM | EC50 [3]: 1 nM | EC50 [4]: 4 nM | Max [4]: 19500 | EC50 [5]: 1 nM | binding result [6]: no binding (tested: 4-6 µM) | binding result (human Fcγ receptor IIIB): no binding (tested: 4-6 µM) | binding result [7]: no binding (tested: 4-6 µM) | binding result (human Fcγ receptor I): no binding (tested: 4-6 µM) | binding result [8]: no binding (tested: 4-6 µM) | EC50 [9]: 1 nM | Max [9]: 2500 | EC50 [10]: > 200 nM | Max [10]: 409
B1: PSMA01108 Anti-PSMA scFv x Fc x linker x Anti CD3 scFv; Anti PSMA scFv x Fc (bispecific antibody)
chain 1: QVQLVQSGAEVKKPGASVKVSCKASGYTFTDYYMHWVRQAPGQGLEWMGYFNPYNDYTRYAQKFQGRVTMTRDTSTSTVYMELSSLRSEDTAVYYCARSDGYYDAMDYWGQGTTVTVSSGGGGSGGGGSGGGGSGGGGSDIQMTQSPSSLSASVGDRVTITCRASKSISKYLAWYQQKPGKAPKLLIHSGSSLESGVPSRFSGSGSGTEFTLTISSLQPDDFATYYCQQHIEYPWTFGQGTKVEIKEPKSSDKTHTCPPCPAPPAAAPSVFLFPPKPKDTLMISRTPEVTCVVVDVSHEDPEVKFNWYVDGVEVHNAKTKPREEQYNSTYRVVSVLTVLHQDWLNGKEYKCAVSNKALPAPIEKTISKAKGQPREPQVYTLPPSRDELTKNQVSLWCLVKGFYPSDIAVEWESNGQPENNYKTTPPVLDSDGSFFLYSKLTVDKSRWQQGNVFSCSVMHEALHNHYTQKSLSLSPGGGGSPSDIQMTQSPSSLSASVGDRVTITCRASSSVSYMNWYQQKPGKAPKRWIYDSSKLASGVPSRFSGSGSGTDFTLTISSLQPEDFATYYCQQWSRNPPTFGQGTKVEIKGGGGSGGGGSGGGGSGGGGSQVQLVQSGAEVKKPGASVKVSCKASGYTFTRSTMHWVRQAPGQGLEWIGYINPSSAYTNYAQKFQGRVTLTADKSTSTAYMELSSLRSEDTAVYYCASPQVHYDYNGFPYWGQGTLVTVSS
chain 2: QVQLVQSGAEVKKPGASVKVSCKASGYTFTDYYMHWVRQAPGQGLEWMGYFNPYNDYTRYAQKFQGRVTMTRDTSTSTVYMELSSLRSEDTAVYYCARSDGYYDAMDYWGQGTTVTVSSGGGGSGGGGSGGGGSGGGGSDIQMTQSPSSLSASVGDRVTITCRASKSISKYLAWYQQKPGKAPKLLIHSGSSLESGVPSRFSGSGSGTEFTLTISSLQPDDFATYYCQQHIEYPWTFGQGTKVEIKEPKSSDKTHTCPPCPAPPAAAPSVFLFPPKPKDTLMISRTPEVTCVVVDVSHEDPEVKFNWYVDGVEVHNAKTKPREEQYNSTYRVVSVLTVLHQDWLNGKEYKCAVSNKALPAPIEKTISKAKGQPREPQVYTLPPSRDELTKNQVSLSCAVKGFYPSDIAVEWESNGQPENNYKTTPPVLDSDGSFFLVSKLTVDKSRWQQGNVFSCSVMHEALHNHYTQKSLSLSPG
notes: also called PSMA1108; PSAM01108
